B1: Tethering factor for nuclear proteasome cut8 (Schizosaccharomyces pombe (strain ATCC 38366 / 972)), P38937 (parent)
chain: METLSYSQIKKRKADFDEDISKRARQLPVGEQLPLSRLLQYSDKQQLFTILLQCVEKHPDLARDIRGILPAPSMDTCVETLRKLLINLNDSFPYGGDKRGDYAFNRIREKYMAVLHALNDMVPCYLPPYSTCFEKNITFLDAATNVVHELPEFHNPNHNVYKSQAYYELTGAWLVVLRQLEDRPVVPLLPLEELEEHNKTSQNRMEEALNYLKQLQKNEPLVHERSHTFQQTNPQNNFHRHTNSMNIGNDNGMGWHSMHQYI
partner: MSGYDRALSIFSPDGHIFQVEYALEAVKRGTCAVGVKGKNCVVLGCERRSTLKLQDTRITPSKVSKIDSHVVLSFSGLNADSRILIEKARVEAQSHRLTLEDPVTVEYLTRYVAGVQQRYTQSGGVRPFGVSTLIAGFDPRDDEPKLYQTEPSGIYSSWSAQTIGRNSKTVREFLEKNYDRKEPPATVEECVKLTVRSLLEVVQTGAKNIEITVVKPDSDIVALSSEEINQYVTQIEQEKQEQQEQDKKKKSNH
B2: Tethering factor for nuclear proteasome cut8 (Schizosaccharomyces pombe (strain ATCC 38366 / 972)), P38937 (parent)
chain: B1 chain
partner: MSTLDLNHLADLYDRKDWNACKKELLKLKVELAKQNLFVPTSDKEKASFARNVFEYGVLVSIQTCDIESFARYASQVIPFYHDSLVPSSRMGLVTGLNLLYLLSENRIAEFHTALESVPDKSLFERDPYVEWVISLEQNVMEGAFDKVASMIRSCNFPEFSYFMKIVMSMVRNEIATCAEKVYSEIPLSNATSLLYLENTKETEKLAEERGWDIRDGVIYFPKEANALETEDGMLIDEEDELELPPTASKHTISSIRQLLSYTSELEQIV

Variants of: B1
Settings: with psa4_yeast PRE6, P40303

effect of a mutation on the interaction	Variant
decreasing interaction	METLSYSQIRRRRADFDEDISRRARQLPVGEQLPLSRLLQYSDRQQLFTILLQCVERHPDLARDIRGILPAPSMDTCVETLRKLLINLNDSFPYGGDKRGDYAFNRIREKYMAVLHALNDMVPCYLPPYSTCFEKNITFLDAATNVVHELPEFHNPNHNVYKSQAYYELTGAWLVVLRQLEDRPVVPLLPLEELEEHNKTSQNRMEEALNYLKQLQKNEPLVHERSHTFQQTNPQNNFHRHTNSMNIGNDNGMGWHSMHQYI [K10R;K11R;K13R;K22R;K44R;K57R]

Variants of: B2
Settings: with rpn12_schpo rpn12, P50524

effect of a mutation on the interaction	Variant
decreasing interaction	METLSYSQIRRRRADFDEDISRRARQLPVGEQLPLSRLLQYSDRQQLFTILLQCVERHPDLARDIRGILPAPSMDTCVETLRKLLINLNDSFPYGGDKRGDYAFNRIREKYMAVLHALNDMVPCYLPPYSTCFEKNITFLDAATNVVHELPEFHNPNHNVYKSQAYYELTGAWLVVLRQLEDRPVVPLLPLEELEEHNKTSQNRMEEALNYLKQLQKNEPLVHERSHTFQQTNPQNNFHRHTNSMNIGNDNGMGWHSMHQYI [K10R;K11R;K13R;K22R;K44R;K57R]

From IntAct's records for PubMed 16096059
